Reference: patent US20210388087A1 (Chugai, published 2021)

B1: CE115HA000 S52cA (antibody, human IgG1, kappa, L234A L235A, N297A, name in Kabat numbering)
heavy: QVQLVESGGGVVQPGRSLRLSCAASGFTFSNAWMHWVRQAPGKGLEWVAQIKAKANNYATYYAESVKGRFTISRDDSKNSLYLQMNSLKTEDTAVYYCRYVHYGAYYGVDAWGQGTTVTVSSASTKGPSVFPLAPSSKSTSGGTAALGCLVKDYFPEPVTVSWNSGALTSGVHTFPAVLQSSGLYSLSSVVTVPSSSLGTQTYICNVNHKPSNTKVDKKVEPKSCDKTHTCPPCPAPEAAGGPSVFLFPPKPKDTLMISRTPEVTCVVVDVSHEDPEVKFNWYVDGVEVHNAKTKPREEQYASTYRVVSVLTVLHQDWLNGKEYKCKVSNKALPAPIEKTISKAKGQPREPQVYTLPPSRCELTKNQVSLSCAVKGFYPSDIAVEWESNGQPENNYKTTPPVLDSDGSFFLVSKLTVDKSRWQQGNVFSCSVMHEALHNHYTQKSLSLSPDYKDDDDK
chain: EPKSSDKTHTCPPCPAPELLGGPSVFLFPPKPKDTLMISRTPEVTCVVVDVSHEDPEVKFNWYVDGVEVHNAKTKPREEQYNSTYRVVSVLTVLHQDWLNGKEYKCKVSNKALPAPIEKTISKAKGQPREPQVCTLPPSRDELTKNQVSLWCLVKGFYPSDIAVEWESNGQPENNYKTTPPVLDSDGSFFLYSKLTVDKSRWQQGNVFSCSVMHEALHNRYTQKSLSLSP
light: DIVMTQSPLSLPVTPGEPASISCRSSQSLVHSNRNTYLHWYQQKPGQAPRLLIYKVSNRFSGVPDRFSGSGSGTDFTLKISRVEAEDVGVYYCGQGTQVPYTFGQGTKLEIKRTVAAPSVFIFPPSDEQLKSGTASVVCLLNNFYPREAKVQWKVDNALQSGNSQESVTEQDSKDSTYSLSSTLTLSKADYEKHKVYACEVTHQGLSSPVTKSFNRGEC
notes: one-arm antibody
B2: CE115HA000 S52cD (antibody, human IgG1, kappa, L234A L235A, N297A, name in Kabat numbering)
heavy: QVQLVESGGGVVQPGRSLRLSCAASGFTFSNAWMHWVRQAPGKGLEWVAQIKAKDNNYATYYAESVKGRFTISRDDSKNSLYLQMNSLKTEDTAVYYCRYVHYGAYYGVDAWGQGTTVTVSSASTKGPSVFPLAPSSKSTSGGTAALGCLVKDYFPEPVTVSWNSGALTSGVHTFPAVLQSSGLYSLSSVVTVPSSSLGTQTYICNVNHKPSNTKVDKKVEPKSCDKTHTCPPCPAPEAAGGPSVFLFPPKPKDTLMISRTPEVTCVVVDVSHEDPEVKFNWYVDGVEVHNAKTKPREEQYASTYRVVSVLTVLHQDWLNGKEYKCKVSNKALPAPIEKTISKAKGQPREPQVYTLPPSRCELTKNQVSLSCAVKGFYPSDIAVEWESNGQPENNYKTTPPVLDSDGSFFLVSKLTVDKSRWQQGNVFSCSVMHEALHNHYTQKSLSLSPDYKDDDDK
chain: EPKSSDKTHTCPPCPAPELLGGPSVFLFPPKPKDTLMISRTPEVTCVVVDVSHEDPEVKFNWYVDGVEVHNAKTKPREEQYNSTYRVVSVLTVLHQDWLNGKEYKCKVSNKALPAPIEKTISKAKGQPREPQVCTLPPSRDELTKNQVSLWCLVKGFYPSDIAVEWESNGQPENNYKTTPPVLDSDGSFFLYSKLTVDKSRWQQGNVFSCSVMHEALHNRYTQKSLSLSP
light: DIVMTQSPLSLPVTPGEPASISCRSSQSLVHSNRNTYLHWYQQKPGQAPRLLIYKVSNRFSGVPDRFSGSGSGTDFTLKISRVEAEDVGVYYCGQGTQVPYTFGQGTKLEIKRTVAAPSVFIFPPSDEQLKSGTASVVCLLNNFYPREAKVQWKVDNALQSGNSQESVTEQDSKDSTYSLSSTLTLSKADYEKHKVYACEVTHQGLSSPVTKSFNRGEC
notes: one-arm antibody
B3: CE115HA000 S52cG (antibody, human IgG1, kappa, L234A L235A, N297A, name in Kabat numbering)
heavy: QVQLVESGGGVVQPGRSLRLSCAASGFTFSNAWMHWVRQAPGKGLEWVAQIKAKGNNYATYYAESVKGRFTISRDDSKNSLYLQMNSLKTEDTAVYYCRYVHYGAYYGVDAWGQGTTVTVSSASTKGPSVFPLAPSSKSTSGGTAALGCLVKDYFPEPVTVSWNSGALTSGVHTFPAVLQSSGLYSLSSVVTVPSSSLGTQTYICNVNHKPSNTKVDKKVEPKSCDKTHTCPPCPAPEAAGGPSVFLFPPKPKDTLMISRTPEVTCVVVDVSHEDPEVKFNWYVDGVEVHNAKTKPREEQYASTYRVVSVLTVLHQDWLNGKEYKCKVSNKALPAPIEKTISKAKGQPREPQVYTLPPSRCELTKNQVSLSCAVKGFYPSDIAVEWESNGQPENNYKTTPPVLDSDGSFFLVSKLTVDKSRWQQGNVFSCSVMHEALHNHYTQKSLSLSPDYKDDDDK
chain: EPKSSDKTHTCPPCPAPELLGGPSVFLFPPKPKDTLMISRTPEVTCVVVDVSHEDPEVKFNWYVDGVEVHNAKTKPREEQYNSTYRVVSVLTVLHQDWLNGKEYKCKVSNKALPAPIEKTISKAKGQPREPQVCTLPPSRDELTKNQVSLWCLVKGFYPSDIAVEWESNGQPENNYKTTPPVLDSDGSFFLYSKLTVDKSRWQQGNVFSCSVMHEALHNRYTQKSLSLSP
light: DIVMTQSPLSLPVTPGEPASISCRSSQSLVHSNRNTYLHWYQQKPGQAPRLLIYKVSNRFSGVPDRFSGSGSGTDFTLKISRVEAEDVGVYYCGQGTQVPYTFGQGTKLEIKRTVAAPSVFIFPPSDEQLKSGTASVVCLLNNFYPREAKVQWKVDNALQSGNSQESVTEQDSKDSTYSLSSTLTLSKADYEKHKVYACEVTHQGLSSPVTKSFNRGEC
notes: one-arm antibody
B4: CE115HA000 S52cF (antibody, human IgG1, kappa, L234A L235A, N297A, name in Kabat numbering)
heavy: QVQLVESGGGVVQPGRSLRLSCAASGFTFSNAWMHWVRQAPGKGLEWVAQIKAKFNNYATYYAESVKGRFTISRDDSKNSLYLQMNSLKTEDTAVYYCRYVHYGAYYGVDAWGQGTTVTVSSASTKGPSVFPLAPSSKSTSGGTAALGCLVKDYFPEPVTVSWNSGALTSGVHTFPAVLQSSGLYSLSSVVTVPSSSLGTQTYICNVNHKPSNTKVDKKVEPKSCDKTHTCPPCPAPEAAGGPSVFLFPPKPKDTLMISRTPEVTCVVVDVSHEDPEVKFNWYVDGVEVHNAKTKPREEQYASTYRVVSVLTVLHQDWLNGKEYKCKVSNKALPAPIEKTISKAKGQPREPQVYTLPPSRCELTKNQVSLSCAVKGFYPSDIAVEWESNGQPENNYKTTPPVLDSDGSFFLVSKLTVDKSRWQQGNVFSCSVMHEALHNHYTQKSLSLSPDYKDDDDK
chain: EPKSSDKTHTCPPCPAPELLGGPSVFLFPPKPKDTLMISRTPEVTCVVVDVSHEDPEVKFNWYVDGVEVHNAKTKPREEQYNSTYRVVSVLTVLHQDWLNGKEYKCKVSNKALPAPIEKTISKAKGQPREPQVCTLPPSRDELTKNQVSLWCLVKGFYPSDIAVEWESNGQPENNYKTTPPVLDSDGSFFLYSKLTVDKSRWQQGNVFSCSVMHEALHNRYTQKSLSLSP
light: DIVMTQSPLSLPVTPGEPASISCRSSQSLVHSNRNTYLHWYQQKPGQAPRLLIYKVSNRFSGVPDRFSGSGSGTDFTLKISRVEAEDVGVYYCGQGTQVPYTFGQGTKLEIKRTVAAPSVFIFPPSDEQLKSGTASVVCLLNNFYPREAKVQWKVDNALQSGNSQESVTEQDSKDSTYSLSSTLTLSKADYEKHKVYACEVTHQGLSSPVTKSFNRGEC
notes: one-arm antibody
B5: CE115HA000 S52cK (antibody, human IgG1, kappa, L234A L235A, N297A, name in Kabat numbering)
heavy: QVQLVESGGGVVQPGRSLRLSCAASGFTFSNAWMHWVRQAPGKGLEWVAQIKAKKNNYATYYAESVKGRFTISRDDSKNSLYLQMNSLKTEDTAVYYCRYVHYGAYYGVDAWGQGTTVTVSSASTKGPSVFPLAPSSKSTSGGTAALGCLVKDYFPEPVTVSWNSGALTSGVHTFPAVLQSSGLYSLSSVVTVPSSSLGTQTYICNVNHKPSNTKVDKKVEPKSCDKTHTCPPCPAPEAAGGPSVFLFPPKPKDTLMISRTPEVTCVVVDVSHEDPEVKFNWYVDGVEVHNAKTKPREEQYASTYRVVSVLTVLHQDWLNGKEYKCKVSNKALPAPIEKTISKAKGQPREPQVYTLPPSRCELTKNQVSLSCAVKGFYPSDIAVEWESNGQPENNYKTTPPVLDSDGSFFLVSKLTVDKSRWQQGNVFSCSVMHEALHNHYTQKSLSLSPDYKDDDDK
chain: EPKSSDKTHTCPPCPAPELLGGPSVFLFPPKPKDTLMISRTPEVTCVVVDVSHEDPEVKFNWYVDGVEVHNAKTKPREEQYNSTYRVVSVLTVLHQDWLNGKEYKCKVSNKALPAPIEKTISKAKGQPREPQVCTLPPSRDELTKNQVSLWCLVKGFYPSDIAVEWESNGQPENNYKTTPPVLDSDGSFFLYSKLTVDKSRWQQGNVFSCSVMHEALHNRYTQKSLSLSP
light: DIVMTQSPLSLPVTPGEPASISCRSSQSLVHSNRNTYLHWYQQKPGQAPRLLIYKVSNRFSGVPDRFSGSGSGTDFTLKISRVEAEDVGVYYCGQGTQVPYTFGQGTKLEIKRTVAAPSVFIFPPSDEQLKSGTASVVCLLNNFYPREAKVQWKVDNALQSGNSQESVTEQDSKDSTYSLSSTLTLSKADYEKHKVYACEVTHQGLSSPVTKSFNRGEC
notes: one-arm antibody
B6: CE115HA000 S52cL (antibody, human IgG1, kappa, L234A L235A, N297A, name in Kabat numbering)
heavy: QVQLVESGGGVVQPGRSLRLSCAASGFTFSNAWMHWVRQAPGKGLEWVAQIKAKLNNYATYYAESVKGRFTISRDDSKNSLYLQMNSLKTEDTAVYYCRYVHYGAYYGVDAWGQGTTVTVSSASTKGPSVFPLAPSSKSTSGGTAALGCLVKDYFPEPVTVSWNSGALTSGVHTFPAVLQSSGLYSLSSVVTVPSSSLGTQTYICNVNHKPSNTKVDKKVEPKSCDKTHTCPPCPAPEAAGGPSVFLFPPKPKDTLMISRTPEVTCVVVDVSHEDPEVKFNWYVDGVEVHNAKTKPREEQYASTYRVVSVLTVLHQDWLNGKEYKCKVSNKALPAPIEKTISKAKGQPREPQVYTLPPSRCELTKNQVSLSCAVKGFYPSDIAVEWESNGQPENNYKTTPPVLDSDGSFFLVSKLTVDKSRWQQGNVFSCSVMHEALHNHYTQKSLSLSPDYKDDDDK
chain: EPKSSDKTHTCPPCPAPELLGGPSVFLFPPKPKDTLMISRTPEVTCVVVDVSHEDPEVKFNWYVDGVEVHNAKTKPREEQYNSTYRVVSVLTVLHQDWLNGKEYKCKVSNKALPAPIEKTISKAKGQPREPQVCTLPPSRDELTKNQVSLWCLVKGFYPSDIAVEWESNGQPENNYKTTPPVLDSDGSFFLYSKLTVDKSRWQQGNVFSCSVMHEALHNRYTQKSLSLSP
light: DIVMTQSPLSLPVTPGEPASISCRSSQSLVHSNRNTYLHWYQQKPGQAPRLLIYKVSNRFSGVPDRFSGSGSGTDFTLKISRVEAEDVGVYYCGQGTQVPYTFGQGTKLEIKRTVAAPSVFIFPPSDEQLKSGTASVVCLLNNFYPREAKVQWKVDNALQSGNSQESVTEQDSKDSTYSLSSTLTLSKADYEKHKVYACEVTHQGLSSPVTKSFNRGEC
notes: one-arm antibody

The binders below were run against T1, CD3 epsilon homodimer protein (UniProt P07766 23-126) (assay: SPR, CD3 epsilon homodimer on chip, one-arm antibody as analyte;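 further: surface plasmon resonance at 25 °C with CD3 epsilon homodimer amine-coupled to a CM4 sensor chip, antibody injected as analyte, HBS-EP+ as running buffer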).
T1 construct: also called CD3 (CD3 epsilon)
T1 sequence (P07766 23-126): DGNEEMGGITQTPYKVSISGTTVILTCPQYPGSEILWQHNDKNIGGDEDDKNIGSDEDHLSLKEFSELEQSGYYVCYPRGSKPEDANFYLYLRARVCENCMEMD
For B1, the “KD ratio (KD of CE115HA000/KD of altered form)” value (shortened to “KD ratio”) was 0.87. With B2 the “KD ratio” value was 0.55. In the case of B3, the “KD ratio” value is reported as 0.81. For B4, the “KD ratio” value was 0.93. For B5, the “KD ratio” value was 0.86. B6 was tested, and the “KD ratio” value was 0.94.
